Read-outs that look alike come from different tables or passages of the source.

Usually Kd stands for the concentration at which binding is half-saturated. A word on the koff: it is the first-order rate constant of dissociation. One may read the kon as the rate constant with which the complex forms.

Assay [1] addresses T1, cTnI质控品重组抗原 (human, UniProt P19429 1-210, limits assumed).
T1 construct: 人cTnI蛋白); also called cTnI质控品重组蛋白(公司自产重组抗原); 心肌肌钙蛋白I
Description: BLI, antibody captured on AMC sensor, cTnI recombinant protein in solution. On the technique in general: Biolayer interferometry detects binding as a change in optical thickness at a sensor tip.

In assay [2] the target is T1, cTnI质控品重组抗原. The description is as above. This is another data set of the same source.

T1 sequence (P19429 whole entry): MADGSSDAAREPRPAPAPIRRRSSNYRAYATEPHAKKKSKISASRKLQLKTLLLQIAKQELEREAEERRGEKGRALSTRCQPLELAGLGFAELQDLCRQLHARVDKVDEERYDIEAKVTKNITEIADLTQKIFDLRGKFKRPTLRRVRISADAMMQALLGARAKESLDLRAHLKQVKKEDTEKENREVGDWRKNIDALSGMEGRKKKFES

B1: WT 1-22 (antibody, V domains shown)
VH: EVQLQQSGPELVKPGASVKMSCKASGYSFTLYVLHWVKQKPGQGLEWIGYIYPYIDGTRYNEKFKGKATLTVDKSSSTAFMELSSLTSEDSAVYYCARTGYGNYGLAWLAYWGQGTLVTVSA
VL: QAVVIQESALTTSPGETVTLTCRSSSGAVTTSQYANWVQEKPDHLFTGLIGGSNNRVPGVPARFSGSLIGDKAALTITGAQTEDEAIYFCAIVYSNNWVFGGGTKLTVLG
Regarding B1, in the assay with cTnI质控品重组抗原 [1], the Kd worked out at 47.8 nM, the dissociation rate constant (koff) was 0.000308 s⁻¹ and the on-rate constant (kon) came to 6450 M⁻¹ s⁻¹.

B2: Anti-cTnI 3C7 重组抗体 (WT) (antibody, V domains shown)
VH: EVKLDETGGGLVQPGRPMKLSCIASGATFSGYWMQWVRQSPEKGLEWVAQLRNGPYDFDTFYSDSVKDRFTISRDDSKSVYLQMNNLRAEDMGIYYCTPHFVHWGQGTLVTVSA
VL: DIVMTQSPSSLSVSEGEKVTLRCKSSNSLFNSGNQQNYLAWYQQKPGQPPKLLIYGPSTREFGVPDRFTGSGSGTDFTLISNVQEDLAVYYCQTDRTSAYTFGGGTKLEIK
Regarding B2, in the assay with cTnI质控品重组抗原 [2], the Kd amounted to 33.5 nM, the off-rate (koff) came out at 0.00018 s⁻¹ and the kon was determined as 5360 M⁻¹ s⁻¹. Further, in the assay with cTnI质控品重组抗原 [1], the Kd was 33.5 nM, the koff worked out at 0.00018 s⁻¹ and the kon stood at 5360 M⁻¹ s⁻¹.

B3: WT 1-5 (antibody, V domains shown)
VH: QVQLQQSGTELAKPGASVKFSCKASDYTFSSYWMYWIKQRPGQGLEWIGYLNPSTGHTEYNQKFKDKATLTADKSSSTAYMQLNSLTSEDSAVYYCARKYWGPFAMDYWGQGTSVTVSS
VL: EIFLTQSPAIMSASPGEKVTMTCSASSSVSYAHWYQQKSGTSPKRWIYDSSKIASGIPVRFSGSGSGTSYSLTISSMEAEDAATYYCQNWSTNPYTFGGGTKLEIKR
With B3, in the assay with cTnI质控品重组抗原 [1], the Kd came to 80.6 nM, the off-rate (koff) is 0.000533 s⁻¹ and the kon came to 6610 M⁻¹ s⁻¹.

(Values after CN111018982A (DONGGUAN PENGZHI BIOTECHNOLOGY CO LTD, dated 2020).)
